Results taken from US20250213694A1 (SHANGHAI SIMNOVA BIOTECHNOLOGY, published 2025).

B1: GPRC5D-mab03 (antibody, V domains shown)
VH: QAYLQQSGAELVRPGASVKMSCKASGYTFTSYNMNWVKQTPRQGLEWIGAIYPGNGDTSYNQKFKGKATLTVDKSSSTAYMQLSSLTSEDSAVYFCARVRLRYAMDYWGQGTSVTVSS
VL: DIVMTQSQKFMSTTVGDRVTITCKASQNVGTAVAWYQQKPGQSPKLLISSASNRYTGVPERFTGSGSGTDFTLTIRNMQSEDLADYFCQQYSSYPWTFGGGTELEIK
notes: Murine variable regions; Screened as a chimeric antibody containing the constant region of human IgG1
B2: GPRC5D-mab06 (antibody, V domains shown)
VH: QVQLKQSGPGLVQPSQSLSITCTVSGFSLTSYGVNWIRQSPGKGLEWLGVIWSGGNTDYNAAFRSRLSISKDNSKSQVFFKMNSLQADDTAIYYCARGQLGRPYWYFDVWGTGTSVTVSS
VL: DIVMTQSHKFMSTSVGDRVSITCKASQDVRTAVAWYQQKPGQSPKLLIYWASTRHTGVPDRFTGSRSGTDYTLTISSVQAEDLALYYCQQHYSTPLTFGAGTKLELK
notes: as for B1

Target: T1, human GPRC5D on GPRC5D-overexpressing cells (human, UniProt Q9NZD1 1-345)
T1 construct: whole, on cells; also called also tested on NCI-H929 cells
T1 sequence (Q9NZD1 whole entry): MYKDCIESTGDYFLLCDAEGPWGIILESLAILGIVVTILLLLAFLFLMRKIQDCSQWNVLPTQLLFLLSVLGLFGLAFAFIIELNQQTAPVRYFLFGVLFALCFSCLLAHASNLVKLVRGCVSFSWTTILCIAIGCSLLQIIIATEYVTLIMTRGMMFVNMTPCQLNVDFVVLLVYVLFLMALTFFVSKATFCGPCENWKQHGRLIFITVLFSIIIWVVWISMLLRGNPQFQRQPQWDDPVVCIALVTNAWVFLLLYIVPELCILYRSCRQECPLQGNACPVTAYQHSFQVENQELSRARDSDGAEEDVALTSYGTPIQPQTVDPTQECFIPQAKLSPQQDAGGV
Experiment: cell-based ELISA and FACS on human GPRC5D-overexpressing cells and NCI-H929 cells; chimeric human IgG1 format

Row | Binder | binding result
1 | B1 | binds
2 | B2 | binds
